Assay results as given in patent US20260263646A1 (ENLAZA THERAPEUTICS, published 2026).
Like-named read-outs stand apart in the source and are kept apart here. Blank lines part the entries; values can stand above or below the binder they belong to. [ ]: non-standard residue; d: D form. Tyr(SO2F) = N[C@@H](Cc1ccc(OS(=O)(=O)F)cc1)C(=O)O

Experiments:
PSMA on PC3pip cells [1] = biological target: T1, PSMA on PC3pip cells (UniProt Q04609 1-750, limits assumed); experiment: cell-based or functional assay
T1 sequence (Q04609 whole entry): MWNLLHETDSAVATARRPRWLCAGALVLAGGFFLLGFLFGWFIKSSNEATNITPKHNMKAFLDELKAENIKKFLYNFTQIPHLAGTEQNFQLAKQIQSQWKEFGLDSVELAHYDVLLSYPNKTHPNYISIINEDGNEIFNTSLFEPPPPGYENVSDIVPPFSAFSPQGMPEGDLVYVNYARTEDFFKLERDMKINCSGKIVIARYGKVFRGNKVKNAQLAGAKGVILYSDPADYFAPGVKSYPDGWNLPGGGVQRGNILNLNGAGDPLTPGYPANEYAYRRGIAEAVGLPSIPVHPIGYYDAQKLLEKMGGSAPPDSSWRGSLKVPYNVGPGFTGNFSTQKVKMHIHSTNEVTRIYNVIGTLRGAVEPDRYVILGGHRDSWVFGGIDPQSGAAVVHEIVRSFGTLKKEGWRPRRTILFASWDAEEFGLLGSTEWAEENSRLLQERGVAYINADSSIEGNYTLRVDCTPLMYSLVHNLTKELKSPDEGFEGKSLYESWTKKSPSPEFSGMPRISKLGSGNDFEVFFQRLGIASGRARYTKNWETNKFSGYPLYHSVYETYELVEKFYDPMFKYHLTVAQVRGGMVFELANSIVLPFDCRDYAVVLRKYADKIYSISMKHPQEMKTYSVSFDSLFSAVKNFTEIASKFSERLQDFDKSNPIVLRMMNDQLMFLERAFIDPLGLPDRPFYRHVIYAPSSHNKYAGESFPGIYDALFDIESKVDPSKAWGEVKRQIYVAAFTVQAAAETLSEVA

PSMA on PC3pip cells [2] = biological target: T1, PSMA on PC3pip cells; experiment: cell-based or functional assay; remark: listed apart in the source
PSMA on LNCaP cells [3] = biological target: T2, PSMA on LNCaP cells (human, UniProt Q04609 1-750); experiment: flow cytometry on LNCaP cells
T2 construct: whole, on cells; also called LNCaP (PSMA+)
T2 sequence (Q04609 whole entry): as above

[4] = biological target: T3, PSMA with a Fc tag (Acrobiosystem PSA-H5264) (UniProt Q04609 44-750); experiment: biolayer interferometry, PSMA-Fc on AHC sensor
T3 construct: Printed 'Fe tag'; captured on AHC sensors; also called PSMA with a Fe tag
T3 sequence (Q04609 44-750 limits assumed): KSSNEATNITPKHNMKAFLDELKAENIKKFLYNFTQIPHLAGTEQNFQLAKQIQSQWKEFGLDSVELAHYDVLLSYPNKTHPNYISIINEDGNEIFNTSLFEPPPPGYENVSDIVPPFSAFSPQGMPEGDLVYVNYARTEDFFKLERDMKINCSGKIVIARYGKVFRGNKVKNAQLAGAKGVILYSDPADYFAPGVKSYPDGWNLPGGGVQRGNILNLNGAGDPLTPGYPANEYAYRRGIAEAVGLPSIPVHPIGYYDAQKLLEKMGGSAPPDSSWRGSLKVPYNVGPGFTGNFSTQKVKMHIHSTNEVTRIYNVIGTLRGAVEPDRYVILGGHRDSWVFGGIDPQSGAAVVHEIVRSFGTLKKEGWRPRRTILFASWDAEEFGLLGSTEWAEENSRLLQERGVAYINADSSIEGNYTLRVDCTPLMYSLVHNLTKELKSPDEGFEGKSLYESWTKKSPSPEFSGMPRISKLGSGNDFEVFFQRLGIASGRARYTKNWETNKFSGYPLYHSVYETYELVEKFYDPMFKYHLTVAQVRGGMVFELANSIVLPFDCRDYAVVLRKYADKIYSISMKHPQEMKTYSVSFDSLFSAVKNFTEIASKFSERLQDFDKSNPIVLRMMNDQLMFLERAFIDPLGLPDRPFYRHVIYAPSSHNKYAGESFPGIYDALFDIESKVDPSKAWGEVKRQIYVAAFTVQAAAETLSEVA

PSMA on LNCaP cells [5] = biological target: T2, PSMA on LNCaP cells; experiment: flow cytometry on LNCaP cells; remark: listed apart in the source
HER2 on BT-474 cells [6] = biological target: T4, HER2 on BT-474 cells (human, UniProt P04626 23-1255); experiment: cell-based or functional assay
HER2 on BT-474 cells [7] = biological target: T4, HER2 on BT-474 cells; experiment: flow cytometry on BT-474 cells, pH 6.0
PSMA on LNCaP cells [8] = biological target: T2, PSMA on LNCaP cells; experiment: western blot, LNCaP cells, 0.1 nM, 1 h
PSMA on LNCaP cells [9] = biological target: T2, PSMA on LNCaP cells; experiment: western blot, LNCaP cells, 0.1 nM, 6 h
PSMA on LNCaP cells [10] = biological target: T2, PSMA on LNCaP cells; experiment: western blot, LNCaP cells, 1.0 nM, 1 h
PSMA on LNCaP cells [11] = biological target: T2, PSMA on LNCaP cells; experiment: western blot, LNCaP cells, 1.0 nM, 6 h
PSMA on LNCaP cells [12] = biological target: T2, PSMA on LNCaP cells; experiment: western blot, LNCaP cells, 10.0 nM, 1 h
PSMA on LNCaP cells [13] = biological target: T2, PSMA on LNCaP cells; experiment: western blot, LNCaP cells, 10.0 nM, 6 h
PSMA on LNCaP cells [14] = biological target: T2, PSMA on LNCaP cells; experiment: western blot, LNCaP cells, 100.0 nM, 1 h
PSMA on LNCaP cells [15] = biological target: T2, PSMA on LNCaP cells; experiment: western blot, LNCaP cells, 100.0 nM, 6 h
PSMA on LNCaP cells [16] = biological target: T2, PSMA on LNCaP cells; experiment: western blot, LNCaP cells, 1000.0 nM, 1 h
PSMA on LNCaP cells [17] = biological target: T2, PSMA on LNCaP cells; experiment: western blot, LNCaP cells, 1000.0 nM, 6 h
[18] = biological target: T5, PSMA (commercial, Sino Bio cat #15877-H07H) (UniProt Q04609 44-750); experiment: SDS-PAGE time course, 37C
T5 construct: also called receptor
T5 sequence (Q04609 44-750 limits assumed): as above

[19] = biological target: T6, Fc-tagged Her2 (Acrobiosystem #HER2-H5253) (UniProt P04626 23-652); experiment: SDS-PAGE time course
T6 construct: also called Her2-Fc; FcHer2

B1: C26-54FSY (VHH)
VHH: EVQLVESGGGLVQPGGSLTLSCAASRFMISEYSMHWVRQAPGKGLEWVSTINPXGTTDYAESVKGRFTISRDNAKNTLYLQMNSLKPEDTAVYYCDGYGYRGQGTQVTVSS
modifications: FSY at 54 (X of the entry); MC-PEG8-VC-PABC-MMAE on the C-terminal Cys
fold potency against C26-54TYR (PSMA on PC3pip cells [1]): 3.57 fold
IC50 PC3pip (M), cell viability by CellTiter-Glo after 4 days (PSMA on PC3pip cells [2]): 9.39e-10 M

B2: C2-54TYR (VHH)
VHH: EVQLVESGGGLVQPGGSLTLSCAASRFMISEYSMHWVRQAPGKGLEWVSTINPYGTTDYAESVKGRFTISRDNAKNTLYLQMNSLKPEDTAVYYCDGYGYRGQGTQVTVSS
notes: C2 sdAb with tyrosine at position 54; also called C2-TYR
EC50 (PSMA on LNCaP cells [3]): 6.75 nM
Kd [4]: 9.1 nM

B3: C2-54FSY (VHH)
VHH: EVQLVESGGGLVQPGGSLTLSCAASRFMISEYSMHWVRQAPGKGLEWVSTINPXGTTDYAESVKGRFTISRDNAKNTLYLQMNSLKPEDTAVYYCDGYGYRGQGTQVTVSS
modifications: FSY at 54
notes: also called C2-A54(FSY); C2-FSY
EC50 (PSMA on LNCaP cells [5]): 12.2 nM
Kd [4]: 10.9 nM

B4: C33-54TYR (VHH)
VHH: QVQLQESGGGSVQAGGSLKLTCAASGYIFNSCGMGWYRQSPGRERELVSRISGYGDTWHKESVKGRFTISQDNVKKTLYLQMNSLKPEDTAVYFCAVCYNLETYWGQGTQVTVSS
modifications: PEG8-vc-PABC-MMAE on the C-terminal GGG
IC50 (nM) - 5 h, BT474 viability after 5 h washout (HER2 on BT-474 cells [6]): 21.6 nM
IC50 (nM) - 6 days, BT474 viability, continuous exposure (HER2 on BT-474 cells [6]): 0.328 nM
EC50 (HER2 on BT-474 cells [7]): 2.5 nM

B5: C33-52TYR (VHH)
VHH: QVQLQESGGGSVQAGGSLKLTCAASGYIFNSCGMGWYRQSPGRERELVSRIYGDGDTWHKESVKGRFTISQDNVKKTLYLQMNSLKPEDTAVYFCAVCYNLETYWGQGTQVTVSS
modifications: PEG8-vc-PABC-MMAE on the C-terminal GGG, by sortase ligation
IC50 (nM) - 5 h, BT474 viability after 5 h washout (HER2 on BT-474 cells [6]): > 100 nM
IC50 (nM) - 6 days, BT474 viability, continuous exposure (HER2 on BT-474 cells [6]): 8.42 nM
EC50 (HER2 on BT-474 cells [7]): 160 nM

B8: C34-FSY (bispecific antibody)
chain: EVQLVESGGGLVQPGGSLTLSCAASRFMISEYSMHWVRQAPGKGLEWVSTINPYGTTDYAESVKGRFTISRDNAKNTLYLQMNSLKPEDTAVYYCDGYGYRGQGTQVTVSSGGGGSGGGGSGGGGSQVQLQESGGGSVEAGGSLRLSCARSGWPYSTYSMNWFRQAPGKEREAVAGISSTMSGIIFAESKAGQFTISQDNAKNTVYLQMNNLKPEDTAIYYCAARRXFSLSSSSDDFDYWGQGTQVTVSSAAAYPYDVPDYGSLPETGGSPSTPPTPSPSTPP
modifications: FSY at the X of the entry (101 of the C24 part)
notes: Biparatopic tandem of two anti-PSMA VHH
Crosslinked PSMA (Total PSMA %) (PSMA on LNCaP cells [8]): 0%
Crosslinked PSMA (Total PSMA %) (PSMA on LNCaP cells [9]): 3.2%
Crosslinked PSMA (Total PSMA %) (PSMA on LNCaP cells [10]): 14.8%
Crosslinked PSMA (Total PSMA %) (PSMA on LNCaP cells [11]): 21.5%
Crosslinked PSMA (Total PSMA %) (PSMA on LNCaP cells [12]): 56.9%
Crosslinked PSMA (Total PSMA %) (PSMA on LNCaP cells [13]): 78.7%
Crosslinked PSMA (Total PSMA %) (PSMA on LNCaP cells [14]): 63.3%
Crosslinked PSMA (Total PSMA %) (PSMA on LNCaP cells [15]): 87.1%
Crosslinked PSMA (Total PSMA %) (PSMA on LNCaP cells [16]): 70.4%
Crosslinked PSMA (Total PSMA %) (PSMA on LNCaP cells [17]): 89.9%

B9: C28-101FSY (VHH)
VHH: QVQLQESGGGSVEAGGSLRLSCARSGWPYSTYSMNWFRQAPGKEREAVAGISSTMSGIIFAESKAGQFTISQDNAKNTVYLQMNNLKPEDTAIYYCAARRXFSLSSSSDDFDYWGQGTQVTVSS
modifications: FSY at 101 (X of the entry); MC-PEG8-VC-PABC-MMAE on the C-terminal Cys
fold potency against C28-101TYR (PSMA on PC3pip cells [1]): > 400 fold
IC50 PC3pip (M), cell viability by CellTiter-Glo after 4 days (PSMA on PC3pip cells [2]): 1.8e-10 M

B10: C24-101FSY (VHH)
VHH: QVQLQESGGGSVEAGGSLRLSCARSGWPYSTYSMNWFRQAPGKEREAVAGISSTMSGIIFAESKAGQFTISQDNAKNTVYLQMNNLKPEDTAIYYCAARRXFSLSSSSDDFDYWGQGTQVTVSS
modifications: FSY at 101 (X of the entry)
notes: also called C24-FSY
Crosslinked PSMA (Total PSMA %) (PSMA on LNCaP cells [8]): 0%
Crosslinked PSMA (Total PSMA %) (PSMA on LNCaP cells [9]): 0%
Crosslinked PSMA (Total PSMA %) (PSMA on LNCaP cells [10]): 0%
Crosslinked PSMA (Total PSMA %) (PSMA on LNCaP cells [11]): 2.4%
Crosslinked PSMA (Total PSMA %) (PSMA on LNCaP cells [12]): 4.6%
Crosslinked PSMA (Total PSMA %) (PSMA on LNCaP cells [13]): 28.4%
Crosslinked PSMA (Total PSMA %) (PSMA on LNCaP cells [14]): 28.5%
Crosslinked PSMA (Total PSMA %) (PSMA on LNCaP cells [15]): 71%
Crosslinked PSMA (Total PSMA %) (PSMA on LNCaP cells [16]): 41.4%
Crosslinked PSMA (Total PSMA %) (PSMA on LNCaP cells [17]): 75.8%

Next, values leading:

Crosslinked PSMA (Total PSMA %) (PSMA on LNCaP cells [8]): 3.8%
Crosslinked PSMA (Total PSMA %) (PSMA on LNCaP cells [9]): 2.8%
Crosslinked PSMA (Total PSMA %) (PSMA on LNCaP cells [10]): 13.8%
Crosslinked PSMA (Total PSMA %) (PSMA on LNCaP cells [11]): 23.7%
Crosslinked PSMA (Total PSMA %) (PSMA on LNCaP cells [12]): 58.7%
Crosslinked PSMA (Total PSMA %) (PSMA on LNCaP cells [13]): 74.2%
Crosslinked PSMA (Total PSMA %) (PSMA on LNCaP cells [14]): 82.7%
Crosslinked PSMA (Total PSMA %) (PSMA on LNCaP cells [15]): 87.9%
Crosslinked PSMA (Total PSMA %) (PSMA on LNCaP cells [16]): 90.3%
Crosslinked PSMA (Total PSMA %) (PSMA on LNCaP cells [17]): 92%
B6: C36-FSY (bispecific antibody)
chain: QVQLQESGGGSVEAGGSLRLSCARSGWPYSTYSMNWFRQAPGKEREAVAGISSTMSGIIFAESKAGQFTISQDNAKNTVYLQMNNLKPEDTAIYYCAARRXFSLSSSSDDFDYWGQGTQVTVSSGGGGSGGGGSGGGGSQVQLQESGGGSVEAGGSLRLSCARSGWPYSTYSMNWFRQAPGKEREAVAGISSTMSGIIFAESKAGQFTISQDNAKNTVYLQMNNLKPEDTAIYYCAARRXFSLSSSSDDFDYWGQGTQVTVSSAAAYPYDVPDYGSLPETGGSPSTPPTPSPSTPP
modifications: FSY at both X of the entry (101 of each C24 part)
notes: Tandem of two copies of the same VHH

fold crosslinking rate against C39-102FSY [18]: 2 fold
t1/2 maximum crosslinking [18]: ~30 min
B7: C40-102FSY (bispecific antibody)
chain: QVQLQESGGGSVQAGGSLRLSCTAPGYTDSNYYMSWFRQAPGKEREWVAGVNTGRGSTSYADSVKGRFTISQDNAKNTMFLQMNSLKPEDTAIYYCAVAAAXFADSLPKTQDEYILWGQGTQVTVSSAAAYPYDVPDYGSGGGGSGGGGSQVQLQESGGGSVQAGGSLRLSCTAPGYTDSNYYMSWFRQAPGKEREWVAGVNTGRGSTSYADSVKGRFTISQDNAKNTMFLQMNSLKPEDTAIYYCAVAAAHFADSLPKTQDEYILWGQGTQVTVSSAAAYPYDVPDYGSHHHHHH
modifications: FSY at 102 of the first sdAb
notes: also called C40-FSY; C1-C101A/C104A/H102(FSY)-L1-C1-C39

t1/2 maximum crosslinking [18]: ~60 min
B11: C39-102FSY (VHH)
VHH: QVQLQESGGGSVQAGGSLRLSCTAPGYTDSNYYMSWFRQAPGKEREWVAGVNTGRGSTSYADSVKGRFTISQDNAKNTMFLQMNSLKPEDTAIYYCAVAAAXFADSLPKTQDEYILWGQGTQVTVSS
modifications: FSY at 102 (X of the entry)
notes: pelB leader cleaved off; also called C1-C101A/C104A/H102(FSY); C39-FSY C1

crosslinking [19]: 50%
B12: C38-FSY (designed binder)
chain: MDLGKKLLEAARAGQDDEVRILMANGADVNAHDFYGITPLHLAANFGHLEIVEVLLKHGADVNAF[Tyr(SO2F)]YDNTPLHLAADAGHLEIVEVLLKYGADVNASDRDGHTPLHLAAREGHLEIVEVLLKNGADVNAQDKFGKTAFDISIDNGNEDLAEILQKLGGGGSRSDLGKKLLEAARAGQDDEVRILMANGADVNAKDEYGLTPLYLATAHGHLEIVEVLLKNGADVNAVDAIGFTPLHLAAFIGHLEIAEVLLKHGADVNAQDKFGKTAFDISIGNGNEDLAEILQKLNGS
notes: also called C15-66FSY-C16; biparatopic DARPin
